Values quoted from earlier work as cited in article PMC4740388.
Where “and” joins values, the source holds several entries; their conditions need not be identical. Equal values may be shown once. Read-outs that look alike come from different tables or passages of the source.

Experiments:
[1] = target: VEGFR1 ectodomain (Homo sapiens) (UniProt P17948)
[2] = target: VEGFR2 ectodomain (Homo sapiens) (UniProt P35968)
Nucleolin (Homo sapiens) = Nucleolin (Homo sapiens) (UniProt P19338)
[3] = target: Integrin α5β1 (Homo sapiens) (UniProt P08648)
Chain of Integrin α5β1 (Homo sapiens) (P08648 42-995, chain 1 of 2): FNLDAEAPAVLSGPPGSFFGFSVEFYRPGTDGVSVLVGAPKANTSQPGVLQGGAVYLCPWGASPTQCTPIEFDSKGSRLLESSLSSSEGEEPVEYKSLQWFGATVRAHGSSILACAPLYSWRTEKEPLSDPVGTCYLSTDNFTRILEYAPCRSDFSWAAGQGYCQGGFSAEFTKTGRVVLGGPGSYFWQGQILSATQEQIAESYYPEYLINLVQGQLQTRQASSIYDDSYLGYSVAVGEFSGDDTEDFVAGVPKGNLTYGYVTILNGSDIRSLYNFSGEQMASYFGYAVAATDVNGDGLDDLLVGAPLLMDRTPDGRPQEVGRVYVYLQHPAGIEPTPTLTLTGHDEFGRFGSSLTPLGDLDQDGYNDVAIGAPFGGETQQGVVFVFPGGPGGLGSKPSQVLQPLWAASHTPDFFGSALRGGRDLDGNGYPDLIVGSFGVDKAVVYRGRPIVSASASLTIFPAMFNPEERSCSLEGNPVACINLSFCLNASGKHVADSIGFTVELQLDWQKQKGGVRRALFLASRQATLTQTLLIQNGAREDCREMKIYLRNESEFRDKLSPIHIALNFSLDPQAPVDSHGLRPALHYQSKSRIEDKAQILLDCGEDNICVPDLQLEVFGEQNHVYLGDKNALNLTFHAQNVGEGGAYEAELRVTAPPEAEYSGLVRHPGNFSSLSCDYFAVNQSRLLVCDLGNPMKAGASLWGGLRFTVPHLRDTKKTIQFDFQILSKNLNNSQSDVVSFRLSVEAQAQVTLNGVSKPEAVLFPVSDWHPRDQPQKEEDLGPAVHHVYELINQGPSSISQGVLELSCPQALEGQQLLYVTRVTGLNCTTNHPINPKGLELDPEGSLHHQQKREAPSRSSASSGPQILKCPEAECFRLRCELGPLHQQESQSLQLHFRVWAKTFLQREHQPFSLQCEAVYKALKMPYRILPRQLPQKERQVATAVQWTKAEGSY
Chain of Integrin α5β1 (Homo sapiens) (P05556 21-728, chain 2 of 2, further chain): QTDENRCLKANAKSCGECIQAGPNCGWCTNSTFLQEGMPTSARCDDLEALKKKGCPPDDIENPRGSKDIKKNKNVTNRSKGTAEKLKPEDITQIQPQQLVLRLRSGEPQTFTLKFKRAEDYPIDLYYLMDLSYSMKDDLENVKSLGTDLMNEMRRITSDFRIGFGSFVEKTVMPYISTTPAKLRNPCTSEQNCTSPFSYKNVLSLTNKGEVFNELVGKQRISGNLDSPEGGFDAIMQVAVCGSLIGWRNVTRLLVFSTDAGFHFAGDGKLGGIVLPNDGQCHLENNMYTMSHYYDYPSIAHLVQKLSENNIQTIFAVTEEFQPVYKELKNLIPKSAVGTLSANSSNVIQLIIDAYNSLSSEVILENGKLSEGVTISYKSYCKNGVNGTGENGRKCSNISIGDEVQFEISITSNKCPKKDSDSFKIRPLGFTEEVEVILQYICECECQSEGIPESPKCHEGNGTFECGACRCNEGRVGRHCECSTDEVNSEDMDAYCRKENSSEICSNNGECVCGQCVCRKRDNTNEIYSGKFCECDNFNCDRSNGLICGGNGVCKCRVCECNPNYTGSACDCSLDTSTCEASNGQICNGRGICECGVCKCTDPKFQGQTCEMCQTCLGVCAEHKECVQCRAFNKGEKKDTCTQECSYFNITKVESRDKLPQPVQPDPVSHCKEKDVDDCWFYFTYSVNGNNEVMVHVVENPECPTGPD

[4] = target: Integrin αvβ3 (Homo sapiens) (UniProt P06756)
Chain of Integrin αvβ3 (Homo sapiens) (P06756 31-992, chain 1 of 2): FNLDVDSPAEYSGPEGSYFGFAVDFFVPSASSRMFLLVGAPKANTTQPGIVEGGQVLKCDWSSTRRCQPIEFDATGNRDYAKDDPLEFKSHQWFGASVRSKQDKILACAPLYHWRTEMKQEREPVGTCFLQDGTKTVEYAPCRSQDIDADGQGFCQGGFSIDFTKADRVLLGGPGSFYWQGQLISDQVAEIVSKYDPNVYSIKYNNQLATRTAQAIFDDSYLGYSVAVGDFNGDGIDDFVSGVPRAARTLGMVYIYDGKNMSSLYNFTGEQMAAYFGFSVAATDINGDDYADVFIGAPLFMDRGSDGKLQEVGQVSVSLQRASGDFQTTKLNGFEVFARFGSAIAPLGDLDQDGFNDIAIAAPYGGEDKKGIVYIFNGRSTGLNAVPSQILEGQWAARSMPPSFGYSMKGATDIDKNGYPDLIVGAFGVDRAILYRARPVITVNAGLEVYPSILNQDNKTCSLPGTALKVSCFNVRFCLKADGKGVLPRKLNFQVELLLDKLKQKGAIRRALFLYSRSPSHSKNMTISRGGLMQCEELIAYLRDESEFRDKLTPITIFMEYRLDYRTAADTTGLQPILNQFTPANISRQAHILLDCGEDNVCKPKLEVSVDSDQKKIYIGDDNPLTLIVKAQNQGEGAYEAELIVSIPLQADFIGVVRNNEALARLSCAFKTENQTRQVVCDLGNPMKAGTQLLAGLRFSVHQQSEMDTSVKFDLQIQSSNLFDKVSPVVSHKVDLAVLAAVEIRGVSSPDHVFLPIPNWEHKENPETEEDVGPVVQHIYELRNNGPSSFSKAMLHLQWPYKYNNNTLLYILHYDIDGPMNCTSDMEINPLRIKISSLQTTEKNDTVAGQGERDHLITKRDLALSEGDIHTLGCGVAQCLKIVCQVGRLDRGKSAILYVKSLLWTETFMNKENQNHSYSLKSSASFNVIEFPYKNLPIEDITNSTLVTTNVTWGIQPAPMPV
Chain of Integrin αvβ3 (Homo sapiens) (P05106 27-718, chain 2 of 2, further chain): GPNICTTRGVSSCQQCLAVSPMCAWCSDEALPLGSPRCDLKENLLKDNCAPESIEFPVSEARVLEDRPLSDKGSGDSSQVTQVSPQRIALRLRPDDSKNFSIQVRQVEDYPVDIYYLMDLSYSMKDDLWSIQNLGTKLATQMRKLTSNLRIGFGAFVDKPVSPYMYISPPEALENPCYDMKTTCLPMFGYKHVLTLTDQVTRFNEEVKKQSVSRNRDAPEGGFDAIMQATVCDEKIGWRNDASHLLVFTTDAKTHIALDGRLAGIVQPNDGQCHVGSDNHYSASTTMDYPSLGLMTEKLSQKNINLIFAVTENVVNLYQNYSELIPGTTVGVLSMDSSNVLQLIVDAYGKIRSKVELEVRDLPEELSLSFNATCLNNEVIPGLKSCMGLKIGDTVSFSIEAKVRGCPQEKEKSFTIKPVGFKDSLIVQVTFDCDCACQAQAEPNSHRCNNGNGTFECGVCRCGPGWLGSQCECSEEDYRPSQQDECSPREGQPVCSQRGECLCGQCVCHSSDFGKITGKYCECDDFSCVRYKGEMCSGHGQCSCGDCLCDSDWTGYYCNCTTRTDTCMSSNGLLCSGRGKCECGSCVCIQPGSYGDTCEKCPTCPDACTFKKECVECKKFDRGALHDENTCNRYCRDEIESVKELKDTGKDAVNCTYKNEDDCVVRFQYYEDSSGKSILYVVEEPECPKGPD

[5] = target: Integrin αvβ3 (Homo sapiens) (UniProt P06756); remark: listed apart in the source

Chain of Endostatin endostatin (P39060 1569-1754): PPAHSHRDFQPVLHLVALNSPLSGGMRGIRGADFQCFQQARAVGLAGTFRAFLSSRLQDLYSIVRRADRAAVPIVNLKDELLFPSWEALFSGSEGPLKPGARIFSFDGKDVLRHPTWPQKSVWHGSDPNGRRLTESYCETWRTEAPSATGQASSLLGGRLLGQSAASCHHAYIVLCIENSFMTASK
Chain of Endorepellin endorepellin (P98160 3684-4391): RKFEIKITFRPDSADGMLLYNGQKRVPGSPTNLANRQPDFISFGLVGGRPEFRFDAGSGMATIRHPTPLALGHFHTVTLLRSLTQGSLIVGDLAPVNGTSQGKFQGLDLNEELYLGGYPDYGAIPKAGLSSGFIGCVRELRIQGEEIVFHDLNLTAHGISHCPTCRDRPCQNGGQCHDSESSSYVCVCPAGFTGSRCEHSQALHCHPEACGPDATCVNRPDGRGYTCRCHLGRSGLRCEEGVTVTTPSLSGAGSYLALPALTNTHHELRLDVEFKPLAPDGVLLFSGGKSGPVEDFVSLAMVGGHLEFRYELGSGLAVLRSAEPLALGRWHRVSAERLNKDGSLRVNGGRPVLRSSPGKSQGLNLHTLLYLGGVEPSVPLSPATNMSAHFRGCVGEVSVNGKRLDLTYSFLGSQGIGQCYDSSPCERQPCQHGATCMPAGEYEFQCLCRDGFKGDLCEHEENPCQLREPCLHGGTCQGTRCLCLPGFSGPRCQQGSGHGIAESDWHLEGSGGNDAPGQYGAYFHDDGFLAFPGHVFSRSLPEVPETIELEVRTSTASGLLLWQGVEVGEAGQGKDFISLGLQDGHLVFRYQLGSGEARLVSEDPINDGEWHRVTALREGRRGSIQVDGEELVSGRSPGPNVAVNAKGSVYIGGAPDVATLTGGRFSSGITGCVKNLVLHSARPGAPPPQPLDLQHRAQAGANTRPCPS
Chain of Nucleolin (Homo sapiens) (P19338 2-710): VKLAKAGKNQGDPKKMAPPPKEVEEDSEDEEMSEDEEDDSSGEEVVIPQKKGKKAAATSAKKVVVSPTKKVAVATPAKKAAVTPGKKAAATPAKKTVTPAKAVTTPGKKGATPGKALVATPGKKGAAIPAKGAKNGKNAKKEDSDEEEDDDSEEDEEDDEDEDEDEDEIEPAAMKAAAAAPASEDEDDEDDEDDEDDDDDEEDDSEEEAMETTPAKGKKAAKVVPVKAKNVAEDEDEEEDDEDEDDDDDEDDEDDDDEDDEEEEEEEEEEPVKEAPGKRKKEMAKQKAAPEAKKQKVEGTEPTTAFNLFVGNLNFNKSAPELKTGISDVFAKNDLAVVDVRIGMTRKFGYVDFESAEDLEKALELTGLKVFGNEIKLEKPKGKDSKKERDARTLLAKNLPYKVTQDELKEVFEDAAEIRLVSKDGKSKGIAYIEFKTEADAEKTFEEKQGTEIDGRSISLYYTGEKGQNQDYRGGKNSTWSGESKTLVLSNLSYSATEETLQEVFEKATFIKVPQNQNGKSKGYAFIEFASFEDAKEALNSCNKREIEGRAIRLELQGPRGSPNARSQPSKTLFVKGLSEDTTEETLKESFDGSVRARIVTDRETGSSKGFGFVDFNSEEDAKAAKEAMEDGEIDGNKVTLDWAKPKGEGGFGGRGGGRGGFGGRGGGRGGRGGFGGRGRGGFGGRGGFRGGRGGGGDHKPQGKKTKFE

For “Endorepellin endorepellin (from UniProt P98160)”, the Kd [1] is given as 1 nM and the Kd [2] is given as 0.9 nM.

In the case of “Endostatin endostatin (from UniProt P39060)”, the Kd (Nucleolin (Homo sapiens)) is listed as 13 nM, the Kd [3] is listed as 975 nM and 451 nM and the Kd [4] is listed as 501 nM and 1200 nM.

In the case of “Tetrastatin tetrastatin (from UniProt P53420)”, the Kd [5] is given as 148 nM.
